Experimental data taken from patent CN113912708A (INST MILITARY MEDICINE ACADEMY MILITARY SCIENCES PLA, dated 2022).

Experiments:
MERS-CoV RBD-Fc蛋白 = MERS-CoV RBD-Fc蛋白 (MERS-CoV (RBD); human (IgG Fc))
MERS-CoV假病毒 = MERS-CoV假病毒 (MERS-CoV); experiment: cell-based or functional assay

B1: 单域重链抗体Nano-Anti-MRBD (VHH)
VHH: QVQLVESGGGLVQPGGSLRLSCAASGFSFIDYAMSWARQAPGKGLEWVSSISPGYGTTYYTDSVKGRFTISRDNAKNMLYLQMNSLKPEDTATYYCAKGSDPFTPGIQRGQGTQVTVSS
**Q.** How did the EC50 (MERS-CoV RBD-Fc蛋白) turn out when B1 was run?
**A.** The EC50 was 0.744 ng/mL.

**Q.** And the “对MERS-CoV假病毒进入细胞的抑制率 (IC50, luciferase RLU, Huh-7细胞)” value (MERS-CoV假病毒)?
**A.** The value was 10.7 ng/mL.
